Experimental findings from article PMC3735830 (Nature structural & molecular biology, 2013) are described below.

Common to all, as to experiment: co-IP
The target in test [1] is MCM2-7 (S. cerevisiae, UniProt P29469;P24279;P30665;P29496;P53091;P38132).
In test [2] the target is MCM2-7-ΔC3 (S. cerevisiae, UniProt P29469;P24279;P30665;P29496;P53091;P38132).
Test [3] concerns the target Mcm3 (S. cerevisiae, UniProt P24279 1-971).
Test [4] addresses T1, Mcm4 (S. cerevisiae, UniProt P30665 1-933).
T1 sequence: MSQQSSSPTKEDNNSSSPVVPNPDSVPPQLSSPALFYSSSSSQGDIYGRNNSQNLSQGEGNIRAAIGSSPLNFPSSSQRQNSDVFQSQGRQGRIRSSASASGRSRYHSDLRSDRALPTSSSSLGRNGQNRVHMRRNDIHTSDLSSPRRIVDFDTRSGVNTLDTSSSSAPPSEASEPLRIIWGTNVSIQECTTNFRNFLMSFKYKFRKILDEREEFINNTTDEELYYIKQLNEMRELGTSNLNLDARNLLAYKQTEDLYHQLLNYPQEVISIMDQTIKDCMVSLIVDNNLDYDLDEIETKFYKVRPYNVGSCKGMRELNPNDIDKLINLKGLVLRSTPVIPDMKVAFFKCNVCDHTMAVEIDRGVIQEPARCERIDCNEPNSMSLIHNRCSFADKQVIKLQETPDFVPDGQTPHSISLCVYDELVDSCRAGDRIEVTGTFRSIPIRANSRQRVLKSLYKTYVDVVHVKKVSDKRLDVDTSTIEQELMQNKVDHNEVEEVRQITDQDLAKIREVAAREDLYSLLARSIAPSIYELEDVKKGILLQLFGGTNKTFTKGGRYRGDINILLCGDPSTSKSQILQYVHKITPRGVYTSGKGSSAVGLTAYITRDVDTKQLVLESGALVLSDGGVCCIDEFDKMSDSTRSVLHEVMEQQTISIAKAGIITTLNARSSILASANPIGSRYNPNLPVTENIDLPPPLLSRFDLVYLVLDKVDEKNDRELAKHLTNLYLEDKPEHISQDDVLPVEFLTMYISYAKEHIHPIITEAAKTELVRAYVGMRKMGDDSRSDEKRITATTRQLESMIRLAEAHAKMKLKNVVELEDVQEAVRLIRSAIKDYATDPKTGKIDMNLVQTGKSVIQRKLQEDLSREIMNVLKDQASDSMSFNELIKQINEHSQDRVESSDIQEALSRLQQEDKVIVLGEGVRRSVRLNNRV

In test [5] the target is Origin Recognition Complex (ORC) (S. cerevisiae, UniProt P54784;P32833;P54790;P54791;P50874;P38826).

Sequence of MCM2-7-ΔC3 (P24279 1-739, stated change not applied, chain 2 of 4): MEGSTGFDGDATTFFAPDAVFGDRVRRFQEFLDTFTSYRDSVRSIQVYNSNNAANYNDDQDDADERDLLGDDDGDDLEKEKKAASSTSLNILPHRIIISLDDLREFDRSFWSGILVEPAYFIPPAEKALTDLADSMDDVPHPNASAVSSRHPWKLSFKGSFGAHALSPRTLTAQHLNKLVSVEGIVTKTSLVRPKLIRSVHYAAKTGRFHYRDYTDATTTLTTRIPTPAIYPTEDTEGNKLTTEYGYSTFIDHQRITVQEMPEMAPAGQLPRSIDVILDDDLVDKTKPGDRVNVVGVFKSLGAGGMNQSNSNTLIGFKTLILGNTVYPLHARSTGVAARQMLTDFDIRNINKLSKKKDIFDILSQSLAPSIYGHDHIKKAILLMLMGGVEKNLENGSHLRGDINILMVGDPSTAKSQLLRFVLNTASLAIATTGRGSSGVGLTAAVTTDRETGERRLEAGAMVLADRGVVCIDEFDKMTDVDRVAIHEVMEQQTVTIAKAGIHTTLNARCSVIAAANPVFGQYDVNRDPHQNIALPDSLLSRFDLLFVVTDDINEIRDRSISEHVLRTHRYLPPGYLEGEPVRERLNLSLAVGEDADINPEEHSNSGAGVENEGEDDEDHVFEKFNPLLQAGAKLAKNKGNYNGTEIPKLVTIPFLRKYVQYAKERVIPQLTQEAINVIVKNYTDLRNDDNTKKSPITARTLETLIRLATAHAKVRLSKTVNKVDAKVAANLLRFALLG
Sequence of MCM2-7-ΔC3 (P29496 whole entry, stated change not applied, chain 4 of 4): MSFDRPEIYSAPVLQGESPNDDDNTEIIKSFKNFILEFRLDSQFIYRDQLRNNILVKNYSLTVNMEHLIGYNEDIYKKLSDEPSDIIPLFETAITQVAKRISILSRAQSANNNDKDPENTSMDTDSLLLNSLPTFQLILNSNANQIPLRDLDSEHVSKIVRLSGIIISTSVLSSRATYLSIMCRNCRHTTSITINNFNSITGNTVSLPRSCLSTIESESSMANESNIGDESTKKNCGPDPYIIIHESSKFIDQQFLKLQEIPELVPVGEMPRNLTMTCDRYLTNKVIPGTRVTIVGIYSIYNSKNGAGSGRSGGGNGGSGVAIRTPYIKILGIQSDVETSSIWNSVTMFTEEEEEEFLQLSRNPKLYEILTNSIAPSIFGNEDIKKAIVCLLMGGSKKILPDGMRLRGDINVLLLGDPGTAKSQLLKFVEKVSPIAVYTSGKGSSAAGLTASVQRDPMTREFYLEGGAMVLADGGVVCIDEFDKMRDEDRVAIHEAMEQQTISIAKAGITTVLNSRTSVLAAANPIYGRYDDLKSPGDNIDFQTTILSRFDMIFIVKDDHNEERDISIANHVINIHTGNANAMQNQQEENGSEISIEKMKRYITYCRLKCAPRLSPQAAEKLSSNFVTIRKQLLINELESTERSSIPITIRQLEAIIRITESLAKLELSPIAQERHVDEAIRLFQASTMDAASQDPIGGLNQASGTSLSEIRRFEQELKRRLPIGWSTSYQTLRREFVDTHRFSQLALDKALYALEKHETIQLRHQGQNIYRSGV
Sequence of MCM2-7-ΔC3 (P53091 whole entry, stated change not applied, chain 5 of 4): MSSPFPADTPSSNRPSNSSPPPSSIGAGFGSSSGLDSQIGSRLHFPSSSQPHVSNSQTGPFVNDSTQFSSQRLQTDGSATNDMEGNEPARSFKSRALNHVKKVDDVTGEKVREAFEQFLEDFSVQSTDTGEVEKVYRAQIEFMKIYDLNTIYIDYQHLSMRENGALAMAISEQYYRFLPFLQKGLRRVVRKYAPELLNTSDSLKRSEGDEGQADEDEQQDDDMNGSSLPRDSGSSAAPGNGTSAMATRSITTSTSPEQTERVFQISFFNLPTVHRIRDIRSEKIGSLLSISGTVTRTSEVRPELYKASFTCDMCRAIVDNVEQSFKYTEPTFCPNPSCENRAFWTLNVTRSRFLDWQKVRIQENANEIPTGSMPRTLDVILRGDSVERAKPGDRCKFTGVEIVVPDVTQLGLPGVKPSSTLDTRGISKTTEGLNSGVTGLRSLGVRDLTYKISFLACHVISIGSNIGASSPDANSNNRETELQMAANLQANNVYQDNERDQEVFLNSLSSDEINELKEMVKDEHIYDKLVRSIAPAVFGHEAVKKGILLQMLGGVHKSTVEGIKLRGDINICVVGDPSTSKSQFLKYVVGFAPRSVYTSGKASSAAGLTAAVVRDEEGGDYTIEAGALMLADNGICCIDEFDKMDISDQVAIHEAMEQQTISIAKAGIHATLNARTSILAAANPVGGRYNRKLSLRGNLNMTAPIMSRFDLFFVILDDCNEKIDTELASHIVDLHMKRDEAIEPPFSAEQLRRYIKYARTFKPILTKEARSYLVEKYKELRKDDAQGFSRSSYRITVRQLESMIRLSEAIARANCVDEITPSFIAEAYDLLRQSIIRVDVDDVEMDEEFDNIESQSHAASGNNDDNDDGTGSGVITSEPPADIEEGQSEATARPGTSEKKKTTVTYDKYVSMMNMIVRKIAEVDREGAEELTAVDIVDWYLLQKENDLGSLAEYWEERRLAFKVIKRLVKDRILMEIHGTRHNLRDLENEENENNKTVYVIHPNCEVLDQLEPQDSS
Sequence of MCM2-7-ΔC3 (P38132 whole entry, stated change not applied, chain 6 of 4): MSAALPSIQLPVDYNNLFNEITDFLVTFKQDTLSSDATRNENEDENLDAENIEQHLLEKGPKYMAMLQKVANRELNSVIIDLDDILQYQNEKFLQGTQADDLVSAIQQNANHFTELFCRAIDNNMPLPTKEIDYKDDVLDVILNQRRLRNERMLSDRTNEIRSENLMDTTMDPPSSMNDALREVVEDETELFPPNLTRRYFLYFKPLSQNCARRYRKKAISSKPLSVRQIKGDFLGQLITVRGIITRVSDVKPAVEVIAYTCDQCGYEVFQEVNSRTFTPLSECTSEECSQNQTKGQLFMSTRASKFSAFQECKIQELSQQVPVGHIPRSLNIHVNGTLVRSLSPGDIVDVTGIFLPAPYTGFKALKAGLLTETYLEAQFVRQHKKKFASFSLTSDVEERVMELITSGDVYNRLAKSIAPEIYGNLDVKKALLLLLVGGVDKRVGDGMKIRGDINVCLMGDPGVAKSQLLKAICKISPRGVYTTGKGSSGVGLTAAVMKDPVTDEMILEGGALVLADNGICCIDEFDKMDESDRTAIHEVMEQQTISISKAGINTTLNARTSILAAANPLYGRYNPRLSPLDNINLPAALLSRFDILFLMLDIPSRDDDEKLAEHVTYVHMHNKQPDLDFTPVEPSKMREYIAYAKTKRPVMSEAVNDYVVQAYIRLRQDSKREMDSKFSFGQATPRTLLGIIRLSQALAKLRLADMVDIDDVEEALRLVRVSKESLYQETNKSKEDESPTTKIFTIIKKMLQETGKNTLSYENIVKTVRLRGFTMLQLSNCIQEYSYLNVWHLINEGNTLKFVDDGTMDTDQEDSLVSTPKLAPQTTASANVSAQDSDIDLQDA
Sequence of Mcm3 (P24279 whole entry): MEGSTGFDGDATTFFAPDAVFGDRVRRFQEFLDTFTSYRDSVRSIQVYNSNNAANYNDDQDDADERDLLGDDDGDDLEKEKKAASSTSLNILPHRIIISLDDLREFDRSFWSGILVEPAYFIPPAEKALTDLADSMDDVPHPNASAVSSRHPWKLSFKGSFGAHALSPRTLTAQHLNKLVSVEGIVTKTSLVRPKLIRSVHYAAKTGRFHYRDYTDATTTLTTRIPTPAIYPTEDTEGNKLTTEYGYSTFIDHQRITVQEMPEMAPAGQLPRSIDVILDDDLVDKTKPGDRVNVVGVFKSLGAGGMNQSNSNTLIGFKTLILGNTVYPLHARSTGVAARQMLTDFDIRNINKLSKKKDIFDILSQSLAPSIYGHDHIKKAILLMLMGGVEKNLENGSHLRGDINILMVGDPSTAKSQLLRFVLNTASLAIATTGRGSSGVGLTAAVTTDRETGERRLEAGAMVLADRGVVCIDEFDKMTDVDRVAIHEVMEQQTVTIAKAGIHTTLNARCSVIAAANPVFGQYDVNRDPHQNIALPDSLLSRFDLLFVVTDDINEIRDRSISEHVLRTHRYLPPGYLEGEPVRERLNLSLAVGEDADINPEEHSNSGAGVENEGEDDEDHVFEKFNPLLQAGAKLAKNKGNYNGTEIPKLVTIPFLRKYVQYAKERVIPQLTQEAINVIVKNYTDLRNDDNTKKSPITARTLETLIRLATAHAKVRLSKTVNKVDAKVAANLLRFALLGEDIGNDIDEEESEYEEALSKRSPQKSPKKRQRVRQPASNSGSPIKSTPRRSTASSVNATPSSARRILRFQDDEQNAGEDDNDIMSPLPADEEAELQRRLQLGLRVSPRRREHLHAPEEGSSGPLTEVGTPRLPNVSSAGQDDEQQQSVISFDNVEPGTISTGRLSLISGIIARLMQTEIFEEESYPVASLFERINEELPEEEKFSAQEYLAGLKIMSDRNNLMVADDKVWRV
Sequence of MCM2-7 (P24279 whole entry, chain 2 of 4): as the sequence (P24279 whole entry) above
Sequence of MCM2-7 (P29496 whole entry, chain 4 of 4): as the sequence (P29496 whole entry, stated change not applied, chain 4 of 4) above
Sequence of MCM2-7 (P53091 whole entry, chain 5 of 4): as the sequence (P53091 whole entry, stated change not applied, chain 5 of 4) above
Sequence of MCM2-7 (P38132 whole entry, chain 6 of 4): as the sequence (P38132 whole entry, stated change not applied, chain 6 of 4) above

B1: MBP-Cdc6 (natural protein)
chain: MSAIPITPTKRIRRNLFDDAPATPPRPLKRKKLQFTDVTPESSPEKLQFGSQSIFLRTKALLQKSSELVNLNSSDGALPARTAEYEQVMNFLAKAISEHRSDSLYITGPPGTGKTAQLDMIIRQKFQSLPLSLSTPRSKDVLRHTNPNLQNLSWFELPDGRLESVAVTSINCISLGEPSSIFQKIFDSFQDLNGPTLQIKNMQHLQKFLEPYHKKTTFVVVLDEMDRLLHANTSETQSVRTILELFLLAKLPTVSFVLIGMANSLDMKDRFLSRLNLDRGLLPQTIVFQPYTAEQMYEIVIQKMSSLPTIIFQPMAIKFAAKKCAGNTGDLRKLFDVLRGSIEIYELEKRFLLSPTRGSLNSAQVPLTPTTSPVKKSYPEPQGKIGLNYIAKVFSKFVNNNSTRTRIAKLNIQQKLILCTIIQSLKLNSDATIDESFDHYIKAITKTDTLAPLQRNEFLEICTILETCGLVSIKKTKCKGKTKRFVDKIDVDLDMREFYDEMTKISILKPFLH
In the case of B1, the binding result in test [1] and in test [2] was “binds” throughout.

B2: Mcm2 (natural protein)
chain: MSDNRRRRREEDDSDSENELPPSSPQQHFRGGMNPVSSPIGSPDMINPEGDDNEVDDVPDIDEVEEQMNEVDLMDDNMYEDYAADHNRDRYDPDQVDDREQQELSLSERRRIDAQLNERDRLLRNVAYIDDEDEEQEGAAQLDEMGLPVQRRRRRRQYEDLENSDDDLLSDMDIDPLREELTLESLSNVKANSYSEWITQPNVSRTIARELKSFLLEYTDETGRSVYGARIRTLGEMNSESLEVNYRHLAESKAILALFLAKCPEEMLKIFDLVAMEATELHYPDYARIHSEIHVRISDFPTIYSLRELRESNLSSLVRVTGVVTRRTGVFPQLKYVKFNCLKCGSILGPFFQDSNEEIRISFCTNCKSKGPFRVNGEKTVYRNYQRVTLQEAPGTVPPGRLPRHREVILLADLVDVSKPGEEVEVTGIYKNNYDGNLNAKNGFPVFATIIEANSIKRREGNTANEGEEGLDVFSWTEEEEREFRKISRDRGIIDKIISSMAPSIYGHRDIKTAVACSLFGGVPKNVNGKHSIRGDINVLLLGDPGTAKSQILKYVEKTAHRAVFATGQGASAVGLTASVRKDPITKEWTLEGGALVLADKGVCLIDEFDKMNDQDRTSIHEAMEQQSISISKAGIVTTLQARCSIIAAANPNGGRYNSTLPLAQNVSLTEPILSRFDILCVVRDLVDEEADERLATFVVDSHVRSHPENDEDREGEELKNNGESAIEQGEDEINEQLNARQRRLQRQRKKEEEISPIPQELLMKYIHYARTKIYPKLHQMDMDKVSRVYADLRRESISTGSFPITVRHLESILRIAESFAKMRLSEFVSSYDLDRAIKVVVDSFVDAQKVSVRRQLRRSFAIYTLGH
For B2, the binding result in test [3], in test [4] and in test [5] was “binds” in each case.
